Key:
Test in all cases: co-IP
[1] = target: FLAG XIAP (X-linked mammalian inhibitor of apoptosis protein), wild-type, full length (UniProt P98170 1-497)
FLAG XIAP T143A E314S = FLAG XIAP T143A E314S (UniProt P98170 1-497, T143A | E314S)
FLAG XIAP V146A E314S = FLAG XIAP V146A E314S (UniProt P98170 1-497, V146A | E314S)
FLAG XIAP D148A E314S = FLAG XIAP D148A E314S (UniProt P98170 1-497, D148A | E314S)
[2] = target: FLAG XIAP D148A W310A E314S (UniProt P98170 1-497, D148A | W310A | E314S)
[3] = target: FLAG XIAP D148A D214S H343A (UniProt P98170 1-497, D148A | D214S | H343A)
FLAG XIAP D148A D214S H343A, sequence (P98170 whole entry D148A/D214S/H343A): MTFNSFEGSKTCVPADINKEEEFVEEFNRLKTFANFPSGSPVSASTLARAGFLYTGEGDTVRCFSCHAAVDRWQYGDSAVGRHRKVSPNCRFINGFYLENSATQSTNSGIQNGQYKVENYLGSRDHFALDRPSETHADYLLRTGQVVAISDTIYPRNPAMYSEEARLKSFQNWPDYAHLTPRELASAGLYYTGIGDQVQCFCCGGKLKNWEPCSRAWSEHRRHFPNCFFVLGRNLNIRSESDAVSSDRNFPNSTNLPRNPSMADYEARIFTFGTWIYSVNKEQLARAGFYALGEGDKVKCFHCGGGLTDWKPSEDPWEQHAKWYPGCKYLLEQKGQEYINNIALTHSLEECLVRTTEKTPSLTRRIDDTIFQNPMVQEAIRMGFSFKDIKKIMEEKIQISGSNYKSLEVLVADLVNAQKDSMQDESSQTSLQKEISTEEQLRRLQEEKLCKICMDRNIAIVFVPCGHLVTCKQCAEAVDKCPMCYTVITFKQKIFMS

FLAG XIAP D148A G306S = FLAG XIAP D148A G306S (UniProt P98170 1-497, D148A | G306S)
FLAG XIAP D148A G306S, sequence (P98170 whole entry D148A/G306S): as the sequence (P98170 whole entry D148A/D214S/H343A) above, with S214D, G306S, A343H counted along it

FLAG XIAP N259D = FLAG XIAP N259D (UniProt P98170 1-497, N259D)
FLAG XIAP N259D, sequence (P98170 whole entry N259D): as the sequence (P98170 whole entry D148A/D214S/H343A) above, with A148D, S214D, N259D, A343H counted along it

FLAG XIAP H343A = FLAG XIAP H343A (UniProt P98170 1-497, H343A)
FLAG XIAP H343A, sequence (P98170 whole entry H343A): as the sequence (P98170 whole entry D148A/D214S/H343A) above, with A148D, S214D counted along it

FLAG XIAP D214S = FLAG XIAP D214S (UniProt P98170 1-497, D214S)
FLAG XIAP D214S, sequence (P98170 whole entry D214S): as the sequence (P98170 whole entry D148A/D214S/H343A) above, with A148D, A343H counted along it

FLAG XIAP D214S N259D = FLAG XIAP D214S N259D (UniProt P98170 1-497, D214S | N259D)
FLAG XIAP D214S N259D, sequence (P98170 whole entry D214S/N259D): as the sequence (P98170 whole entry D148A/D214S/H343A) above, with A148D, N259D, A343H counted along it

FLAG XIAP E314S = FLAG XIAP E314S (UniProt P98170 1-497, E314S)
FLAG XIAP E314S, sequence (P98170 whole entry E314S): as the sequence (P98170 whole entry D148A/D214S/H343A) above, with A148D, S214D, E314S, A343H counted along it

FLAG XIAP N259D E314S = FLAG XIAP N259D E314S (UniProt P98170 1-497, N259D | E314S)
FLAG XIAP N259D E314S, sequence (P98170 whole entry N259D/E314S): as the sequence (P98170 whole entry D148A/D214S/H343A) above, with A148D, S214D, N259D, E314S, A343H counted along it

FLAG XIAP W310A E314S = FLAG XIAP W310A E314S (UniProt P98170 1-497, W310A | E314S)
FLAG XIAP W310A E314S, sequence (P98170 whole entry W310A/E314S): as the sequence (P98170 whole entry D148A/D214S/H343A) above, with A148D, S214D, W310A, E314S, A343H counted along it

FLAG XIAP D214S H343A = FLAG XIAP D214S H343A (UniProt P98170 1-497, D214S | H343A)
FLAG XIAP D214S H343A, sequence (P98170 whole entry D214S/H343A): as the sequence (P98170 whole entry D148A/D214S/H343A) above, with A148D counted along it

Measured: DIABLO binding relative to wild-type XIAP (arbitrary value, 10 = 100%)

FLAG XIAP D148A W310A E314S, sequence (P98170 whole entry D148A/W310A/E314S): as the sequence (P98170 whole entry D148A/D214S/H343A) above, with S214D, W310A, E314S, A343H counted along it
FLAG XIAP D148A E314S, sequence (P98170 whole entry D148A/E314S): as the sequence (P98170 whole entry D148A/D214S/H343A) above, with S214D, E314S, A343H counted along it
FLAG XIAP T143A E314S, sequence (P98170 whole entry T143A/E314S): as the sequence (P98170 whole entry D148A/D214S/H343A) above, with T143A, A148D, S214D, E314S, A343H counted along it
FLAG XIAP V146A E314S, sequence (P98170 whole entry V146A/E314S): as the sequence (P98170 whole entry D148A/D214S/H343A) above, with V146A, A148D, S214D, E314S, A343H counted along it
FLAG XIAP (X-linked mammalian inhibitor of apoptosis protein), wild-type, full length, sequence (P98170 whole entry): as the sequence (P98170 whole entry D148A/D214S/H343A) above, with A148D, S214D, A343H counted along it

B1: processed DIABLO (HA-tagged DIABLO) (natural protein)
chain: AVPIAQKSEPQSLSNEALMRRAVSLVTDSTSTFLSQTTYALIEAITEYTKAVYTLVSLYRQYTSLLGKMNSQEEDEVWQVIIGARVEMTSKQQEYLKLETTWMTAVGLSEMAAEAAYQTGADQASITARNHIQLVKSQVQEVRQLSQKAETKLAEAQTKELHQKAQEVSDEGADQEEEAYLRED
8 arbitrary (10 = 100%): FLAG XIAP D148A G306S | FLAG XIAP D214S H343A
9 arbitrary (10 = 100%): [3] | FLAG XIAP D214S | FLAG XIAP D214S N259D
10 arbitrary (10 = 100%): [1] | FLAG XIAP N259D | FLAG XIAP H343A
4 arbitrary (10 = 100%): [2] | FLAG XIAP W310A E314S
5 arbitrary (10 = 100%): all other assays above

Source: publication PMC2173256 (The Journal of Cell Biology, 2002)
